Experimental data from the RNAGym collection of RNA variant scans (doi:10.1073/pnas.2313332121).
Variants at the floor of the assay were thinned out.

B1: TPR 5TU (parent)
chain: GGAUCUUCUCGAUCUAACAAAAAAGACAAAUCUGCCACAAAGCUUGAGAGCAUCUUCGGAUGCAGAGGCGGCAGCCUUCGGUGGCGCGAUAGCGCCAACGUUCUCAACUAUGACACGCAAAACGCGUGCUCCGUUGAAUGGAGUUUAUCAUG

Variants of: B1
Assay: polymerase ribozyme fitness, log enrichment relative to wild type (log ratio); higher = more active; in vitro selection for triplet polymerase activity
Outline: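 After PCR construction and transcription, each subunit's mutant library from a heterodimeric triplet polymerase ribozyme was annealed with a biotinylated primer, the partner subunit and triplets. Incubation was frozen, at −7 °C, and extended constructs were gel-excised, bound to streptavidin beads and amplified by RT-PCR, in one selection round done in triplicate. Fitness is the logarithm of a genotype's enrichment divided by that of the wild type, from inverse-variance-weighted replicate averages of Illumina-sequenced inputs and outputs. The base of the logarithm is 2, and genotypes needed ≥10 input reads and ≥1 read per output.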
In the case of U44A C87A U90C C93G C105G A122G, the “polymerase ribozyme fitness (log ratio)” value is reported as at most -4.2.
For U44C G59A A91U, the “polymerase ribozyme fitness (log ratio)” value was -4.
With U44A G50C U53A C87A A106G A107U the “polymerase ribozyme fitness (log ratio)” value was at most -4.2.
For U44A A91G U135C U144C, the “polymerase ribozyme fitness (log ratio)” value was at most -4.2.
With C43U A73G the “polymerase ribozyme fitness (log ratio)” value was at most -4.2.
For U44A C72U A73G G86U A138C, the “polymerase ribozyme fitness (log ratio)” value was at most -4.2.
For U44A C72G C79A A150C, the “polymerase ribozyme fitness (log ratio)” value was at most -4.2.
For G42C C54G A91U G124A C131G, the “polymerase ribozyme fitness (log ratio)” value was at most -4.2.
With C43A U44G A64C C118G C131G A137G G152U the “polymerase ribozyme fitness (log ratio)” value was at most -4.2.
For C43G G83U A97U U104C C116U A137C, the “polymerase ribozyme fitness (log ratio)” value was at most -4.2.
For G42C G84U A138G U146G, the “polymerase ribozyme fitness (log ratio)” value was at most -4.2.
In the case of G42C U44G A106G, the “polymerase ribozyme fitness (log ratio)” value is reported as at most -4.2.
In the case of U44G A52C U77C G83A C99A C118A U145G, the “polymerase ribozyme fitness (log ratio)” value is reported as at most -4.2.
For G42A G88C, the “polymerase ribozyme fitness (log ratio)” value was at most -4.2.
For G42A U78G C116A C125G, the “polymerase ribozyme fitness (log ratio)” value was at most -4.2.
For U44A U104A A115G, the “polymerase ribozyme fitness (log ratio)” value was at most -4.2.
In the case of U44C G83C U148A, the “polymerase ribozyme fitness (log ratio)” value is reported as at most -4.2.
For G42A U53A, the “polymerase ribozyme fitness (log ratio)” value was at most -4.2.
With A41U U55A A142G the “polymerase ribozyme fitness (log ratio)” value was -2.45.
For U45A A47C, the “polymerase ribozyme fitness (log ratio)” value was -3.93.
In the case of G42A G59A, the “polymerase ribozyme fitness (log ratio)” value is reported as -4.11.
With U45A A47C U61A G92A C114A C123G U146G the “polymerase ribozyme fitness (log ratio)” value was at most -4.2.
For C43U C51A C85U A107U U135C, the “polymerase ribozyme fitness (log ratio)” value was at most -4.2.
For C43A C57G U78G C96A A113G, the “polymerase ribozyme fitness (log ratio)” value was at most -4.2.
With U44A C75U C76G U77G G92U A115U G140A G152C the “polymerase ribozyme fitness (log ratio)” value was at most -4.2.
With A41U U56A C93A A121U the “polymerase ribozyme fitness (log ratio)” value was -3.16.
For C43A A52C G94A, the “polymerase ribozyme fitness (log ratio)” value was at most -4.2.
With G42A G48A U102C C103A the “polymerase ribozyme fitness (log ratio)” value was at most -4.2.
With C43U G58C C95A U102C C103G C105G A110U the “polymerase ribozyme fitness (log ratio)” value was at most -4.2.
For G42A G58A G100C, the “polymerase ribozyme fitness (log ratio)” value was at most -4.2.
In the case of U44C G58A A64G C93G A119G, the “polymerase ribozyme fitness (log ratio)” value is reported as at most -4.2.
With G42C U55A A66G U144A the “polymerase ribozyme fitness (log ratio)” value was at most -4.2.
With G42A C87G the “polymerase ribozyme fitness (log ratio)” value was at most -4.2.
For U44A C57A U82C C95A, the “polymerase ribozyme fitness (log ratio)” value was at most -4.2.
In the case of G42C G94C U111C, the “polymerase ribozyme fitness (log ratio)” value is reported as at most -4.2.
With U44A C57G C69G G80C U82A C108A U109G G141C the “polymerase ribozyme fitness (log ratio)” value was at most -4.2.
With G42U G84U U134C U139G the “polymerase ribozyme fitness (log ratio)” value was at most -4.2.
In the case of U44C G59U G92A U135A, the “polymerase ribozyme fitness (log ratio)” value is reported as at most -4.2.
For C43A U53A U55A G74A C76A G88U A142G, the “polymerase ribozyme fitness (log ratio)” value was at most -4.2.
In the case of U44G G48A G84A, the “polymerase ribozyme fitness (log ratio)” value is reported as at most -4.2.
For U44A G80A A138U A150G, the “polymerase ribozyme fitness (log ratio)” value was at most -4.2.
In the case of G42C C76U C85U A89G U104C, the “polymerase ribozyme fitness (log ratio)” value is reported as at most -4.2.
With U44A A47C the “polymerase ribozyme fitness (log ratio)” value was at most -4.2.
In the case of C43A G88A, the “polymerase ribozyme fitness (log ratio)” value is reported as at most -4.2.
For C43G G50C C85A C96A C108U G124A, the “polymerase ribozyme fitness (log ratio)” value was at most -4.2.
For A41U U55A C79U G83A, the “polymerase ribozyme fitness (log ratio)” value was at most -4.2.
For C43A C75U A106U C108U C123G G141A, the “polymerase ribozyme fitness (log ratio)” value was at most -4.2.
With C43U A49C C96A A107C A113U the “polymerase ribozyme fitness (log ratio)” value was at most -4.2.
With C43U G67U the “polymerase ribozyme fitness (log ratio)” value was at most -4.2.
In the case of C43A A47C U53A A91G, the “polymerase ribozyme fitness (log ratio)” value is reported as at most -4.2.
With G42A G86A C103U A119C the “polymerase ribozyme fitness (log ratio)” value was at most -4.2.
With C43U A52U C85G G133U the “polymerase ribozyme fitness (log ratio)” value was at most -4.2.
With G42A G58C G59C G88C A91G A106C A107G the “polymerase ribozyme fitness (log ratio)” value was at most -4.2.
With G42A U148C the “polymerase ribozyme fitness (log ratio)” value was at most -4.2.
With G42A G59A A66C A73U U78A C87G U146G C149A the “polymerase ribozyme fitness (log ratio)” value was at most -4.2.
In the case of C43A U53A C57A C95U, the “polymerase ribozyme fitness (log ratio)” value is reported as at most -4.2.
For U44G G88C C108G U144C C149U, the “polymerase ribozyme fitness (log ratio)” value was at most -4.2.
With U44G A89U U144C the “polymerase ribozyme fitness (log ratio)” value was at most -4.2.
For U44A G48A G58C G83A, the “polymerase ribozyme fitness (log ratio)” value was at most -4.2.
For U44G C75G G88C, the “polymerase ribozyme fitness (log ratio)” value was at most -4.2.
With G42C U44A A49U A60C C79U C96U C125A A142G the “polymerase ribozyme fitness (log ratio)” value was at most -4.2.
With C43A U53G A64U C95U A110U A150C the “polymerase ribozyme fitness (log ratio)” value was at most -4.2.
In the case of G42C C43U A91U C93G, the “polymerase ribozyme fitness (log ratio)” value is reported as at most -4.2.
For C43U U61G A64C U77G C85U A110U C116G, the “polymerase ribozyme fitness (log ratio)” value was -4.02.
With G42U A106C the “polymerase ribozyme fitness (log ratio)” value was -4.17.
In the case of G42A G86A C118A, the “polymerase ribozyme fitness (log ratio)” value is reported as at most -4.2.
For C43U C54U U56G U78C C85G C93G G133A G136U G140U, the “polymerase ribozyme fitness (log ratio)” value was at most -4.2.
In the case of G42A C75G C87A, the “polymerase ribozyme fitness (log ratio)” value is reported as at most -4.2.
In the case of U44A U55A C63G C85U C87G G92U, the “polymerase ribozyme fitness (log ratio)” value is reported as at most -4.2.
With U44A C76A U82G G100A C103G A137G the “polymerase ribozyme fitness (log ratio)” value was at most -4.2.
In the case of G42A G50A C76U G84U G92A A107C C116G, the “polymerase ribozyme fitness (log ratio)” value is reported as at most -4.2.
For U44C G94C U146A, the “polymerase ribozyme fitness (log ratio)” value was at most -4.2.
With G42U U45G U53C G88U A137C the “polymerase ribozyme fitness (log ratio)” value was at most -4.2.
For G42C U45A A52C U77G C85A C116G, the “polymerase ribozyme fitness (log ratio)” value was at most -4.2.
With C43U U61A G86U A142G A147U the “polymerase ribozyme fitness (log ratio)” value was at most -4.2.
For G42U A47C C87A U104G A107G, the “polymerase ribozyme fitness (log ratio)” value was at most -4.2.
In the case of G42C A60U G92U A119U C125A, the “polymerase ribozyme fitness (log ratio)” value is reported as at most -4.2.
In the case of G42A G59U C76U G88U C103G G152U, the “polymerase ribozyme fitness (log ratio)” value is reported as at most -4.2.
In the case of G42A G74C G83C A107U G112C, the “polymerase ribozyme fitness (log ratio)” value is reported as at most -4.2.
With G42C G88U C95A the “polymerase ribozyme fitness (log ratio)” value was at most -4.2.
For U44A U82A, the “polymerase ribozyme fitness (log ratio)” value was -4.18.
For C43U G50U U55A C76U G136A G152U, the “polymerase ribozyme fitness (log ratio)” value was at most -4.2.
For U44G U134C, the “polymerase ribozyme fitness (log ratio)” value was -4.1.
